Our source for the percent of the binding of human IgG1 to the same receptor and receptor occupancy (RO) values is patent US20250179176A1, “ANTI-TIGIT ANTIBODIES AND USES OF THE SAME” (ARCUS BIOSCIENCES, INC., priority 2022, published 2025).

One test addresses human FcγR3A (human) (UniProt P08637). Kind of test: ELISA, FcγR3A coated on plate, anti-human IgG HRP, chemiluminescence. (An ELISA detects its analyte on a solid surface through an enzyme-linked reagent.)
In another test the target is Human TIGIT (human) (UniProt Q495A1). Kind of test: flow cytometry receptor occupancy on patients' whole blood, competitive anti-TIGIT antibody MBSA43 as detector, Q2W dosing.
Chain of Human TIGIT (human) (Q495A1 other isoform, or with tags, fused parts or gaps): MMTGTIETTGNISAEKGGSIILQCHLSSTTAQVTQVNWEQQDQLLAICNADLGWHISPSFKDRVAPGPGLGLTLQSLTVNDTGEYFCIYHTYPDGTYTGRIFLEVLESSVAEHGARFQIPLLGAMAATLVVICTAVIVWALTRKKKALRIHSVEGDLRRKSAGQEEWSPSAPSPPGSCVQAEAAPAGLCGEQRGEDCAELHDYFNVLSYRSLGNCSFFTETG

Chain of human FcγR3A (human) (P08637 17-208 limits assumed): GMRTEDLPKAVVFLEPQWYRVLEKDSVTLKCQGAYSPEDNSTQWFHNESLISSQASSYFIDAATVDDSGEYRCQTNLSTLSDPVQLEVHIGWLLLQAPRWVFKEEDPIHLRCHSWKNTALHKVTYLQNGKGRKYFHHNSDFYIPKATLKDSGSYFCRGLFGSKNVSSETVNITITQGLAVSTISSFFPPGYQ

The substance domvanalimab (antibody) yielded a percent of the binding of human IgG1 to the same receptor with human FcγR3A (human) of 20%. Besides, the receptor occupancy (RO) in the test with Human TIGIT (human) is over 98%.
